Data as given in patent US10030233B2, “Modified P450 reductase with N-terminal deletions and endoplasmic reticulum retention tag” (DE MONTFORT UNIVERSITY, priority 2013, dated 2018).

B1: ΔN1hRD-M: human P450 reductase lacking N-terminal 24 amino acids, with C-terminal 12-amino acid c-myc tag; described in WO 2007/129050; gene SEQ ID NO: 5 (protein)
chain: MTDMILFSLIVGLLTYWFLFRKKKEEVPEFTKIQTLTSSVRESSFVEKMKKTGRNIIVFYGSQTGTAEEFANRLSKDAHRYGMRGMSADPEEYDLADLSSLPEIDNALVVFCMATYGEGDPTDNAQDFYDWLQETDVDLSGVKFAVFGLGNKTYEHFNAMGKYVDKRLEQLGAQRIFELGLGDDDGNLEEDFITWREQFWPAVCEHFGVEATGEESSIRQYELVVHTDIDAAKVYMGEMGRLKSYENQKPPFDAKNPFLAAVTTNRKLNQGTERHLMHLELDISDSKIRYESGDHVAVYPANDSALVNQLGKILGADLDVVMSLNNLDEESNKKHPFPCPTSYRTALTYYLDITNPPRTNVLYELAQYASEPSEQELLRKMASSSGEGKELYLSWVVEARRHILAILQDCPSLRPPIDHLCELLPRLQARYYSIASSSKVHPNSVHICAVVVEYETKAGRINKGVATNWLRAKEPAGENGGRALVPMFVRKSQFRLPFKATTPVIMVGPGTGVAPFIGFIQERAWLRQQGKEVGETLLYYGCRRSDEDYLYREELAQFHRDGALTQLNVAFSREQSHKVYVQHLLKQDREHLWKLIEGGAHIYVCGDARNMARDVQNTFYDIVAELGAMEHAQAVDYIKKLMTKGRYSLDVWSSSEQKLISEEDLNGSRL
modifications: delN1hRD-M
B2: ΔN1hRD-HDEL: human P450 reductase lacking N-terminal 24 amino acids, with C-terminal yeast ER retention signal HDEL (protein)
chain: MTDMILFSLIVGLLTYWFLFRKKKEEVPEFTKIQTLTSSVRESSFVEKMKKTGRNIIVFYGSQTGTAEEFANRLSKDAHRYGMRGMSADPEEYDLADLSSLPEIDNALVVFCMATYGEGDPTDNAQDFYDWLQETDVDLSGVKFAVFGLGNKTYEHFNAMGKYVDKRLEQLGAQRIFELGLGDDDGNLEEDFITWREQFWPAVCEHFGVEATGEESSIRQYELVVHTDIDAAKVYMGEMGRLKSYENQKPPFDAKNPFLAAVTTNRKLNQGTERHLMHLELDISDSKIRYESGDHVAVYPANDSALVNQLGKILGADLDVVMSLNNLDEESNKKHPFPCPTSYRTALTYYLDITNPPRTNVLYELAQYASEPSEQELLRKMASSSGEGKELYLSWVVEARRHILAILQDCPSLRPPIDHLCELLPRLQARYYSIASSSKVHPNSVHICAVVVEYETKAGRINKGVATNWLRAKEPAGENGGRALVPMFVRKSQFRLPFKATTPVIMVGPGTGVAPFIGFIQERAWLRQQGKEVGETLLYYGCRRSDEDYLYREELAQFHRDGALTQLNVAFSREQSHKVYVQHLLKQDREHLWKLIEGGAHIYVCGDARNMARDVQNTFYDIVAELGAMEHAQAVDYIKKLMTKGRYSLDVWSHDEL
modifications: delN1hRD-HDEL
notes: human P450 reductase lacking N-terminal 24 amino acids, with C-terminal yeast ER retention signal HDEL
B3: ΔN2hRD-HDEL: human P450 reductase lacking the 54-amino acid membrane anchoring region, with C-terminal yeast ER retention signal HDEL (protein)
chain: MTKIQTLTSSVRESSFVEKMKKTGRNIIVFYGSQTGTAEEFANRLSKDAHRYGMRGMSADPEEYDLADLSSLPEIDNALVVFCMATYGEGDPTDNAQDFYDWLQETDVDLSGVKFAVFGLGNKTYEHFNAMGKYVDKRLEQLGAQRIFELGLGDDDGNLEEDFITWREQFWPAVCEHFGVEATGEESSIRQYELVVHTDIDAAKVYMGEMGRLKSYENQKPPFDAKNPFLAAVTTNRKLNQGTERHLMHLELDISDSKIRYESGDHVAVYPANDSALVNQLGKILGADLDVVMSLNNLDEESNKKHPFPCPTSYRTALTYYLDITNPPRTNVLYELAQYASEPSEQELLRKMASSSGEGKELYLSWVVEARRHILAILQDCPSLRPPIDHLCELLPRLQARYYSIASSSKVHPNSVHICAVVVEYETKAGRINKGVATNWLRAKEPAGENGGRALVPMFVRKSQFRLPFKATTPVIMVGPGTGVAPFIGFIQERAWLRQQGKEVGETLLYYGCRRSDEDYLYREELAQFHRDGALTQLNVAFSREQSHKVYVQHLLKQDREHLWKLIEGGAHIYVCGDARNMARDVQNTFYDIVAELGAMEHAQAVDYIKKLMTKGRYSLDVWSHDEL
modifications: delN2hRD-HDEL
notes: human P450 reductase lacking the 54-amino acid membrane anchoring region, with C-terminal yeast ER retention signal HDEL
B4: hRD: wild-type human P450 reductase, full length, control (protein, listed as Homo sapiens)
chain: MGDSHVDTSSTVSEAVAEEVSLFSMTDMILFSLIVGLLTYWFLFRKKKEEVPEFTKIQTLTSSVRESSFVEKMKKTGRNIIVFYGSQTGTAEEFANRLSKDAHRYGMRGMSADPEEYDLADLSSLPEIDNALVVFCMATYGEGDPTDNAQDFYDWLQETDVDLSGVKFAVFGLGNKTYEHFNAMGKYVDKRLEQLGAQRIFELGLGDDDGNLEEDFITWREQFWPAVCEHFGVEATGEESSIRQYELVVHTDIDAAKVYMGEMGRLKSYENQKPPFDAKNPFLAAVTTNRKLNQGTERHLMHLELDISDSKIRYESGDHVAVYPANDSALVNQLGKILGADLDVVMSLNNLDEESNKKHPFPCPTSYRTALTYYLDITNPPRTNVLYELAQYASEPSEQELLRKMASSSGEGKELYLSWVVEARRHILAILQDCPSLRPPIDHLCELLPRLQARYYSIASSSKVHPNSVHICAVVVEYETKAGRINKGVATNWLRAKEPAGENGGRALVPMFVRKSQFRLPFKATTPVIMVGPGTGVAPFIGFIQERAWLRQQGKEVGETLLYYGCRRSDEDYLYREELAQFHRDGALTQLNVAFSREQSHKVYVQHLLKQDREHLWKLIEGGAHIYVCGDARNMARDVQNTFYDIVAELGAMEHAQAVDYIKKLMTKGRYSLDVWS

Tests used:
[1] = tested on: yeast cells; assay: Dihydroethidium assay for ROS detection in yeast cells expressing a P450 reductase; type: cell-based, Saccharomyces cerevisiae; settings: gene synthesized using yeast-biased codons compared with ΔN1hRD-M gene isolated from human liver cDNA library; FIG. 13
Description: The reactive oxygen species generated in yeast cells due to expression of a P450 reductase were assessed using dihydroethidium fluorescence assay. Reactive oxygen species reacts with dihydroethidium to produce ethidium bromide which binds to the nuclear DNA and emits red fluorescence. Dihydroethidine is one of the best reagents available for measuring intracellular production of reactive oxygen species. After overnight induction of a P450 reductase, the cultures were analysed for induction of reactive oxygen species. The control (wt-hRD) and test (ΔN1hRD-M, ΔN1hRD-HDEL, ΔN2hRD-HDEL) yeast cultures were washed in sterile PBS and then incubated with dihydroethidium (5 μM final concentration) for 30 min. After washing with sterile PBS twice (to remove the extracellular dye), the samples were transferred into 96-well black plates with transparent bottom (COSTAR®). Fluorescence was measured using a BIO-TEK® plate reader. Excitation and emission wavelengths were 260 and 610 nm respectively. The percent induction in the formation of reactive oxygen species was calculated by comparing with cultures where genes were not induced.

[2] = tested on: CYP1A2; assay: Amount of CYP1A2 in yeast microsomes by CO-difference spectra, co-expressed with P450 reductase variants; type: cell-based, human; settings: relative to hRD = 1; yeast W303B, pSYE265
Description: (§1) The hRD variant genes, (ΔN1hRD-M, ΔN1hRD-HDEL, ΔN2hRD-HDEL), were integrated into Saccharomyces cerevisiae strain W303B (MAT a leu2 his3 trp1 can1-100 ade2 trp1 ura3) using standard yeast transformation procedures as detailed below. The integrating plasmids, bearing the ΔN1hRD-M, ΔN1hRD-HDEL, ΔN2hRD-HDEL genes, were first linearised with the restriction enzyme BstEII before introducing linearised DNA into yeast cells via homologous recombination. The resultant strains were named: • a) W303B-ΔN1hRD-M, • b) W303B-ΔN1hRD-HDEL, • c) W303B-ΔN2hRD-HDEL.
(§2) They were used for the transformation of the yeast episomal plasmids that bear the CYP2D6 and CYP1A2 genes: • 1. pSYE264 (bearing the human CYP2D6 gene), • 2. pSYE265 (bearing the human CYP1A2 gene).
(§3) A single colony from the strains W303B-ΔN1hRD-M, W303B-ΔN1hRD-HDEL, W303B-ΔN2hRD-HDEL were picked up from a minimal medium (SD) plate (supplemented with appropriate nutrients depending on the auxotrophic markers in the yeast strain) and inoculated into 10 ml of YPD medium (2% Bacto Peptone, 1% yeast extract, 2% glucose). The cells were grown overnight at 30° C. with 220 rpm shaking. 1.5 ml of overnight cultures were centrifuged at 13,000 rpm for a few seconds to collect the cell pellets. 0.5-2 μg of transforming DNA (i.e. the CYP bearing expression plasmids, pSYE264 and pSYE265) and 100 μg of single-stranded salmon sperm DNA were added to pellets and vortexed briefly. 500 μl of PEG solution (40% PEG 3350, 0.1M lithium acetate pH 7.5, 10 mM Tris-HCl pH 7.5, 1 mM EDTA pH7.5) and 5-10% DMSO were added to transformation mixes. All mixes were incubated in a Thermo-mixer for 15 min at 25° C. with shaking at 400 rpm, and then were heat shocked for 15 min at 42° C. After 10 min, 5-10% ethanol was added. The cells were pelleted at 8000 rpm for 1 min and were washed twice in 1×TE buffer and re-suspended in 250 μl-500 μl 1×TE pH7.5. The cells were plated out on SD agar medium and incubated at 30° C. for 2-3 days.
(§4) Recombinant yeast cells were grown in culture using the following protocol: • 1. […] On day two, once OD600 (i.e. OD measured at 600 nm) of the cultures reached 5 to 6 OD-s, the cultures were inoculated into 400 ml YPD medium (1% Bacto Peptone, 1% yeast extract, 2% glucose) with appropriate nutrients in 2-liter flask. […] On day three, after 16 hours, optical density was again measured at 600 nm after diluting the original culture 1:10. […] At the final step, supernatant was poured away and the dry pellet was frozen at −80° C. and the pellet weight was recorded. […]
(§5) The cell pellet that had been obtained from the earlier cell culture was weighed and the weight of cell pellet was recorded. […]

[3] = tested on: CYP; assay: CYP specific activity on co-expression of a CYP with the reductase; type: biochemical; settings: co-expressed with a CYP
From the text: The activity of cytochrome P450 may be measured by the EROD assay or by other assays known in the art. The expression of cytochrome P450 may be measured using CO-difference spectra as is known in the art and is described in the examples herein.

[4] = tested on: CYP2D6; assay: Amount of CYP2D6 in yeast microsomes by CO-difference spectra, co-expressed with P450 reductase variants; type: cell-based, human; settings: relative to hRD = 1; genes synthesized using yeast biased codons; yeast W303B, pSYE264
Description: as §1, §2, §3, §4, §5

Molecule | ROS produced [1] | Relative Amounts of CYP1A2 Obtained [2] | CYP specific activities [3] | Relative Amounts of CYP2D6 Obtained [4]
B1 | far less ROS | 3.2 ± 10% | higher CYP specific activities | 3 ± 10%
B2 |  | 4.0 ± 10% |  | 3.8 ± 10%
B3 |  | 4.5 ± 10% |  | 4.0 ± 10%
B4 |  | 1 |  | 1
